Measured values published in US11286278B2, “DPEP-1 binding agents and methods of use” (Arch Biopartners, Inc., priority 2018, dated 2022).
Ends that are not written are not given here. * marks the point of attachment. Biotin = O=C1N[C@H]2[C@H](CS[C@H]2CCCCC(=O)*)N1

Columns and labels:
[1] = biological target: T1, human membrane dipeptidase (DPEP-1) (Homo sapiens, UniProt P16444); test: Membrane dipeptidase enzyme activity assay (Gly-D-Phe, fluorometric); assay type: biochemical; conditions: lysates of transfected Cos1 cells, substrate Gly-D-Phe
T1 construct: expressed in transfected cells; host or cells: Cos-1
T1 sequence (P16444 17-385): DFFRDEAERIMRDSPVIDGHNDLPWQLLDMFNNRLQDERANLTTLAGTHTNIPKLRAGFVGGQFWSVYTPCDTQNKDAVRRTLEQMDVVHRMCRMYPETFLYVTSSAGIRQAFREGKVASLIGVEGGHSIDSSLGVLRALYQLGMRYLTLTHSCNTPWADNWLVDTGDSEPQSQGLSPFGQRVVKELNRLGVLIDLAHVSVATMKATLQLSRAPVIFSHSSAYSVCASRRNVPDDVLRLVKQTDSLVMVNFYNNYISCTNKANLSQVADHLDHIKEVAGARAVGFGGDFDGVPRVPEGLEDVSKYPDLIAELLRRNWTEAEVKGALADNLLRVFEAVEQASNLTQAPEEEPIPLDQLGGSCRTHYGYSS
Procedure: 24 hours after transfection, DPEP-1 expressing cells weer reseeded on 24 well collagen coated (neutralized) plates and allowed to grow for 24 hours at 37° C. […] Cells were blocked with FBS/NBSA/Tween in PBS for 30 minutes on ice. […] After incubation, cells were washed with PBS and stained with DAPI for 4 minutes on ice. Cells were again washed with PBS, fixed using 4% paraformaldehyde and immunofluoresence microscopy was performed to assess binding. Proteins from human DPEP-1 transfected cells were isolated after 48 hours using octyl-glucoside/RIPA in the absence of protease inhibitors. […] Proteins from transfected cells were isolated after 48 hours using octyl-glucoside/RIPA lysis buffer and western blot analysis was performed to assess DPEP-1 expression using DPEP-1 antibody (Sigma).
The fluorescence signal generated from the conversion of D-Phe to […] in the presence of D-aminoacidoxidase and peroxidase was measured using a fluorescence plate reader.
Proteins from DPEP-1 transfected cells were isolated after 48 hours using octyl-glucoside/RIPA lysis buffer and western blot analysis was performed to assess DPEP-1 expression using a DPEP-1 specific antibody (Proteintech) (FIG. 24B).

[2] = biological target: T2, DPEP1 (Homo sapiens, UniProt P16444); test: Alanine-substituted peptide binding to DPEP1 transfected HEK 293 cells, immunofluorescence; design: expressed in transfected cells; host or cells: HEK 293; conditions: test peptide at 5 uM, 1 hr at room temperature
T2 sequence (P16444 17-385): T1 sequence (P16444 17-385)
Procedure: […] were transfected with DPEP1 or DPEP2, two days prior to assay and were plated onto collagen-coated coverslips one day prior. Then fixed 10 min with 3.7% formaldehyde in PBS, washed 3 times in PBS, incubated with Alanine-substituted test peptide at 5 uM each, 1 hr at room temperature, washed twice with PBS gently, incubated with 1/50 Alexa 568-straptavadin in PBS, 1 hr at room temperature, washed twice with PBS gently and added DAPI Mounted with DAKO Fluorescent mounting media and evaluated for binding under fluorescence microscope.

[3] = Circular dichroism spectroscopy of LSALT peptide and analogs; assay type: physicochemical; design: Inducible Helical Structure (50% TFE-benign): unit not given here; conditions: for Inducible Helical Structure (50% TFE-benign) / [θ] (222 nm) 50% TFE / % Inducible Helical Structure (Inducible/50% TFE) / [θ] (222 nm) Benign (No TFE): 222 nm; for % Inducible Helical Structure (Inducible/50% TFE): 50% TFE is considered 100% folded; for [θ] (222 nm) Benign (No TFE): benign buffer (100 mM KCl, 50 mM Na2HPO4/NaH2PO4, pH 7.0)
Procedure: The physical and chemical properties of protein therapeutics are critical factors that influence the ease of manufacturing, development and clinical use. The LSALT peptide was evaluated in terms of its solubility, aggregation state and stability using a variety of biophysical methods.
In circular dichroism spectroscopy the ellipticity value at 222 nm is a measure of a-helical content. 50% trifluoroethanol is a hydrophobic solvent and induces α-helical structure if the structure can be induced. All of the peptides tested can be induced to adopt α-helical structure. The peptides are random coils in benign conditions (non-denaturing). The buffer conditions were aqueous phosphate, pH 7.0.

Compound	inhibition of human DPEP1 enzymatic activity [1]	inhibition of human DPEP1 enzymatic activity ([1]; listed as cilastatin)	inhibition of human DPEP1 enzymatic activity ([1]; listed as penicillamine)	binding to DPEP-1 by immunofluorescence (alanine mutants) [2]	Inducible Helical Structure (50% TFE-benign) [3]	[θ] (222 nm) 50% TFE [3]	% Inducible Helical Structure (Inducible/50% TFE) [3]	[θ] (222 nm) Benign (No TFE) [3]	inducible α-helical structure (in words) ([3]; 50% trifluoroethanol)
CC1(C)C[C@@H]1C(=O)N/C(=C\CCCCSC[C@H](N)C(=O)O)C(=O)O [Cilastatin]	inhibited the activity	can be inhibited							
CC(C)(S)[C@@H](N)C(=O)O [Penicillamine]	inhibited the activity		can be inhibited						
ASALTPSPSWLKYKAL [Pos 1]				decreased and increased binding to DPEP-1					
Ac-LSALTPSPSWLKYKAL [Peptide A17]					17,615	−74897	23.5%	−57282	
Ac-LSALTPSPSWLKYKAL-amide (Ac-LSALTPSPSWLKYKAL-NH2) [Peptide A18]					40,612	−78951	51.4%	−38340	
Bio-ASALTPSPSWLKYKAL (Biotin-ASALTPSPSWLKYKAL) [Peptide A1]					37,752	−119807	31.5%	−82054	
Bio-LAALTPSPSWLKYKAL [Peptide A2]					51,374	−117502	43.7%	−66128	significantly enhances inducible α-helical structure
Bio-LSAATPSPSWLKYKAL [Peptide A4]					16,397	−76916	21.3%	−60519	
Bio-LSALAPSPSWLKYKAL [Peptide A5]					29,755	−79198	37.6%	−49443	
Bio-LSALTGSPSWLKYKAL [Peptide A6]					28,435	−70926	40.1%	−42491	
Bio-LSALTPAPSWLKYKAL [Peptide A7]					20,988	−70198	29.9%	−49209	
Bio-LSALTPSASWLKYKAL [Peptide A8]					9,444	−42335	22.3%	−32890	
Bio-LSALTPSPAWLKYKAL [Peptide A9]					13,436	−62889	21.4%	−49453	
Bio-LSALTPSPSALKYKAL (Biotin-LSALTPSPSALKYKAL) [Peptide A10]					9,583	−35792	26.8%	−26209	
Bio-LSALTPSPSWAKYKAL (Biotin-LSALTPSPSWAKYKAL) [Peptide A11]					21,682	−80196	27.0%	−58514	
Bio-LSALTPSPSWLAYKAL (Biotin-LSALTPSPSWLAYKAL) [Peptide A12]					8,451	−36742	23.0%	−28292	
Bio-LSALTPSPSWLKAKAL (Biotin-LSALTPSPSWLKAKAL) [Peptide A13]					31,488	−80841	39.0%	−49352	
Bio-LSALTPSPSWLKYAAL (Biotin-LSALTPSPSWLKYAAL) [Peptide A14]					14,068	−39862	35.3%	−25794	
Bio-LSALTPSPSWLKYKAA (Biotin-LSALTPSPSWLKYKAA) [Peptide A16]					11,796	−37070	31.8%	−25275	
Bio-LSALTPSPSWLKYKAL-amide (Biotin-LSALTPSPSWLKYKAL-NH2) [Peptide A19]					77,996	−153947	50.7%	−75952	
Bio-LSALTPSPSWLKYKGL (Biotin-LSALTPSPSWLKYKGL) [Peptide A15]					23,450	−92167	25.4%	−68717	
Bio-LSGLTPSPSWLKYKAL [Peptide A3]					18,865	−68580	27.5%	−49714	
LSALAPSPSWLKYKAL [Pos 5]				decreased and increased binding to DPEP-1					
LSALTPSPSALKYKAL [Pos 10]				decreased and increased binding to DPEP-1					
LSALTPSPSWLAYKAL [Pos 12]				decreased and increased binding to DPEP-1					
